Numbered stars: 1 amine (or outer) side, 2 acyl side, 3 side chain; on linkers, the order of the positions; unused ones are H or OH. Bridge positions count the residues as written; N and C are the ends. Square brackets hold non-standard residues; d marks the D form. Primed or numbered codes have the meaning given here. * marks the point of attachment. tMeBn(DOTA-PP)″ = trimethylbenzylidene (tMeBn) bridge between the two Cys thiols, whose remaining connection point carries a DOTA chelator via a PP linker; Ttds″ = 1,13-diamino-4,7,10-trioxatridecan-succinamic acid spacer, O=C(CCC(=O)[*:2])NCCCOCCOCCOCCCN[*:1]; DOTA = O=C(O)CN1CCN(CC(=O)O)CCN(CC(=O)*)CCN(CC(=O)O)CC1; mXylylene = c1cc(C[*:1])cc(C[*:2])c1; Pentanesulfonyl = CCCCCS(=O)(=O)*; 3Amb = NCc1cccc(C(=O)O)c1; 4Amb = NCc1ccc(C(=O)O)cc1; Hexanoyl = CCCCCC(=O)*; Sar = CNCC(=O)O
B1: Hex-[Cys(3MeBn)-Pro-Pro-Thr-Glu-Phe-Cys]-Asp-Ttds-Lys(DOTA)-NH2 (peptide)
peptide: Hexanoyl-CPPTEFCD[Ttds″]K(DOTA)-NH2
modifications: linker 1-7 via mXylylene
SMILES: CCCCCC(=O)N[C@H]1CSCc2cccc(c2)CSC[C@@H](C(=O)N[C@@H](CC(=O)O)C(=O)NCCCOCCOCCOCCCNC(=O)CCC(=O)N[C@@H](CCCCNC(=O)CN2CCN(CC(=O)O)CCN(CC(=O)O)CCN(CC(=O)O)CC2)C(N)=O)NC(=O)[C@H](Cc2ccccc2)NC(=O)[C@H](CCC(=O)O)NC(=O)[C@H]([C@@H](C)O)NC(=O)[C@@H]2CCCN2C(=O)[C@@H]2CCCN2C1=O
notes: also called 3BP-3396
B2: Hex-[Cys(3MeBn)-Pro-Pro-Thr-Glu-Phe-Cys]-Asp-Pamb-Arg-NH2 (peptide)
peptide: Hexanoyl-CPPTEFCD[4Amb]R-NH2
modifications: linker 1-7 via mXylylene
SMILES: CCCCCC(=O)N[C@H]1CSCc2cccc(c2)CSC[C@@H](C(=O)N[C@@H](CC(=O)O)C(=O)NCc2ccc(C(=O)N[C@@H](CCCNC(=N)N)C(N)=O)cc2)NC(=O)[C@H](Cc2ccccc2)NC(=O)[C@H](CCC(=O)O)NC(=O)[C@H]([C@@H](C)O)NC(=O)[C@@H]2CCCN2C(=O)[C@@H]2CCCN2C1=O
notes: also called 3BP-3301
B3: Hex-[Cys(3MeBn)-Pro-Pro-Thr-Glu-Phe-Cys]-Asp-Mamb-Arg-NH2 (peptide)
peptide: Hexanoyl-CPPTEFCD[3Amb]R-NH2
modifications: linker 1-7 via mXylylene
SMILES: CCCCCC(=O)N[C@H]1CSCc2cccc(c2)CSC[C@@H](C(=O)N[C@@H](CC(=O)O)C(=O)NCc2cccc(C(=O)N[C@@H](CCCNC(=N)N)C(N)=O)c2)NC(=O)[C@H](Cc2ccccc2)NC(=O)[C@H](CCC(=O)O)NC(=O)[C@H]([C@@H](C)O)NC(=O)[C@@H]2CCCN2C(=O)[C@@H]2CCCN2C1=O
notes: also called 3BP-3324
B4: Pentyl-SO2-[Cys(3MeBn)-Pro-Pro-Thr-Gln-Phe-Cys]-Asp-NH2 (peptide)
peptide: Pentanesulfonyl-CPPTQFCD-NH2
modifications: linker 1-7 via mXylylene
SMILES: CCCCCS(=O)(=O)N[C@H]1CSCc2cccc(c2)CSC[C@@H](C(=O)N[C@@H](CC(=O)O)C(N)=O)NC(=O)[C@H](Cc2ccccc2)NC(=O)[C@H](CCC(N)=O)NC(=O)[C@H]([C@@H](C)O)NC(=O)[C@@H]2CCCN2C(=O)[C@@H]2CCCN2C1=O
notes: also called 3BP-3514
B5: Hex-[Cys(tMeBn(InDOTA-PP))-Pro-Pro-Thr-Gln-Phe-Cys]-Asp-NH2 (peptide)
peptide: Hexanoyl-CPPTQFCD-NH2
modifications: linker 1-7 via tMeBn(InDOTA-PP); also: In complex (InDOTA)
notes: also called 3BP-3590
B6: Hex-[Cys(tMeBn(LuDOTA-PP))-Pro-Pro-Thr-Gln-Phe-Cys]-Asp-NH2 (peptide)
peptide: Hexanoyl-CPPTQFCD-NH2
modifications: linker 1-7 via tMeBn(LuDOTA-PP); also: Lu complex (LuDOTA)
notes: also called 3BP-3591
B7: Hex-[Cys(tMeBn(GaDOTA-PP))-Pro-Pro-Thr-Gln-Phe-Cys]-Asp-NH2 (peptide)
peptide: Hexanoyl-CPPTQFCD-NH2
modifications: linker 1-7 via tMeBn(GaDOTA-PP); also: Ga complex (GaDOTA)
notes: also called 3BP-3592
B8: Hex-[Cys(tMeBn(DOTA-AET))-Pro-Pro-Thr-Gln-Phe-AET] (peptide)
peptide: CPPTQFX
modifications: not fully specified; N-term Hex; X7 = AET; Cys1/AET7 thioether-cyclised via tMeBn(DOTA-AET)
notes: also called 3BP-3654
B9: Hex-[Cys(tMeBn(DOTA-AET))-Pro-Pro-Thr-Gln-Phe-Cys]-Asp-OH (peptide)
peptide: Hexanoyl-CPPTQFCD-OH
modifications: linker 1-7 via tMeBn(DOTA-AET)
notes: also called 3BP-3665
B10: Hex-[Cys(tMeBn(DOTA-AET))-Nmg-Pro-Thr-Gln-Phe-Cys]-OH (peptide)
peptide: Hexanoyl-C[Sar]PTQFC-OH
modifications: linker 1-7 via tMeBn(DOTA-AET)
notes: also called 3BP-3678
B11: Hex-[Cys(tMeBn(DOTA-AET))-Pro-Pro-Thr-Gln-Phe-Cys]-asp-NH2 (peptide)
peptide: CPPTQFCD
modifications: N-term Hex; Cys1/Cys7 thioether-cyclised via tMeBn(DOTA-AET); D-Asp at 8; C-term amide
notes: also called 3BP-3681
B12: Pentyl-SO2-[Cys(tMeBn(DOTA-PP))-Pro-Pro-Thr-Gln-Phe-Cys]-Asp-NH2 (peptide)
peptide: Pentanesulfonyl-CPPTQFCD-NH2
modifications: linker 1-7 via tMeBn(DOTA-PP)″
notes: also called 3BP-3692
B13: Hex-[Cys(tMeBn(InDOTA-AET))-Pro-Pro-Thr-Gln-Phe-AET] (peptide)
peptide: CPPTQFX
modifications: not fully specified; N-term Hex; X7 = AET; Cys1/AET7 thioether-cyclised via tMeBn(InDOTA-AET)
notes: also called 3BP-3713

Target: T1, Recombinant human FAP (R&D systems, #3715-SE) (human, UniProt Q12884 26-760)
T1 construct: bought; in SPR captured on immobilized anti-FAP antibody MAB3715; also called rhFAP; human recombinant FAP
T1 sequence (Q12884 26-760 limits assumed): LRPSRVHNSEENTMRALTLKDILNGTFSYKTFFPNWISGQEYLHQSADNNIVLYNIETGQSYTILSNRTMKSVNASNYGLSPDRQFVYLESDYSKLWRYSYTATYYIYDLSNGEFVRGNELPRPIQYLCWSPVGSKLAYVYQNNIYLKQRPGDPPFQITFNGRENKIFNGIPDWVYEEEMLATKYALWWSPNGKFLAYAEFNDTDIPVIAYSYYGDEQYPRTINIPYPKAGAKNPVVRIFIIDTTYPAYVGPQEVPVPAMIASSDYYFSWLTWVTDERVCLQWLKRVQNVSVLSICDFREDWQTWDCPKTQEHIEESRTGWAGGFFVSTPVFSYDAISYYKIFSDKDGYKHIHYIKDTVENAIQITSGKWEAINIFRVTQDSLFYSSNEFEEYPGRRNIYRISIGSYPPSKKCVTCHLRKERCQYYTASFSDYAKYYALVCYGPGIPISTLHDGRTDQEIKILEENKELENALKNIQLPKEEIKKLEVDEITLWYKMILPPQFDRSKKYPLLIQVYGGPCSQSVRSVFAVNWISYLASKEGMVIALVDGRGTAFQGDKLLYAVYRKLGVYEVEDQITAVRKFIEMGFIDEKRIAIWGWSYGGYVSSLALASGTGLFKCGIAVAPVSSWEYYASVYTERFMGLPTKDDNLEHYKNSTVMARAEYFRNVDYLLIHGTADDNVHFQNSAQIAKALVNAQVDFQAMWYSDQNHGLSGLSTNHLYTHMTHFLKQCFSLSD
Experiment: SPR (Biacore T200), FAP captured on anti-FAP antibody, single cycle kinetics

Binder	pKD Category [pKD]
B1	> 8
B2	> 8
B3	> 8
B4	> 8
B5	> 8
B6	> 8
B7	> 8
B8	> 8
B9	> 8
B10	> 8
B11	> 8
B12	> 8
B13	> 8

— patent US20230212549A1 (3B PHARMACEUTICALS, published 2023)
